Experiments:
[1] = target: Methanocaldococcus jannaschii FtsZ-his6 fusion protein (Methanocaldococcus jannaschii) (UniProt Q57816); assay: 90° light scattering; MjFtsZ self-assembly started with 1 mM GTP; 50 mM MES-KOH pH 6.5, 5 mM MgCl2, 300 mM KCl; 80°C; critical concentration from extent of polymerization vs total protein; k_depol from the slope of the disassembly stage (7 μM); monomer addition at polymer ends, apparent
[2] = target: Methanocaldococcus jannaschii FtsZ-his6 fusion protein (Methanocaldococcus jannaschii) (UniProt Q57816); assay: 90° light scattering; MjFtsZ self-assembly started with 1 mM GTP; 50 mM MES-KOH pH 6.5, 5 mM MgCl2, 300 mM KCl; 70°C; critical concentration from extent of polymerization vs total protein; k_depol from the slope of the disassembly stage (7 μM); monomer addition at polymer ends, apparent
[3] = target: Methanocaldococcus jannaschii FtsZ-his6 fusion protein (Methanocaldococcus jannaschii) (UniProt Q57816); assay: 90° light scattering; MjFtsZ self-assembly started with 1 mM GTP; 50 mM MES-KOH pH 6.5, 5 mM MgCl2, 300 mM KCl; 40°C; critical concentration from extent of polymerization vs total protein; k_depol from the slope of the disassembly stage (7 μM); monomer addition at polymer ends, apparent
[4] = target: Methanocaldococcus jannaschii FtsZ-his6 fusion protein (Methanocaldococcus jannaschii) (UniProt Q57816); assay: 90° light scattering; MjFtsZ self-assembly started with 1 mM GTP; 50 mM MES-KOH pH 6.5, 5 mM MgCl2, 300 mM KCl; 50°C; critical concentration from extent of polymerization vs total protein; k_depol from the slope of the disassembly stage (7 μM); monomer addition at polymer ends, apparent
[5] = target: Methanocaldococcus jannaschii FtsZ-his6 fusion protein (Methanocaldococcus jannaschii) (UniProt Q57816); assay: negative-stain transmission electron microscopy; 10 μM MjFtsZ polymerized with 1 mM GTP at 80°C; 50 mM MES-KOH pH 6.5, 5 mM MgCl2, 300 mM KCl; 2% uranyl acetate
[6] = target: Methanocaldococcus jannaschii FtsZ-his6 fusion protein (Methanocaldococcus jannaschii) (UniProt Q57816); assay: van't Hoff analysis of critical concentrations (light scattering + GTPase activity); MjFtsZ; global fit of ln(1/CC) vs 1/T (40-80°C) with the integrated van't Hoff equation; parameters extrapolated to the optimal growth temperature; polymer elongation, apparent
[7] = target: Methanocaldococcus jannaschii FtsZ-his6 fusion protein (Methanocaldococcus jannaschii) (UniProt Q57816); assay: 90° light scattering; MjFtsZ self-assembly started with 1 mM GTP; 50 mM MES-KOH pH 6.5, 5 mM MgCl2, 300 mM KCl; 60°C; critical concentration from extent of polymerization vs total protein; k_depol from the slope of the disassembly stage (7 μM); monomer addition at polymer ends, apparent
[8] = target: Methanocaldococcus jannaschii FtsZ-his6 fusion protein (Methanocaldococcus jannaschii) (UniProt Q57816)
[9] = target: the molecule itself; assay: van't Hoff analysis of critical concentrations (light scattering + GTPase activity); EcFtsZ; global fit of ln(1/CC) vs 1/T (10-30°C) with the integrated van't Hoff equation; parameters extrapolated to the optimal growth temperature; polymer elongation, apparent
[10] = target: the molecule itself; assay: negative-stain transmission electron microscopy; 10 μM EcFtsZ polymerized with 1 mM GTP at 30°C; 50 mM MES-KOH pH 6.5, 5 mM MgCl2, 50 mM KCl; 2% uranyl acetate

Sequence of Methanocaldococcus jannaschii FtsZ-his6 fusion protein (Q57816 whole entry, the tested form may be a part): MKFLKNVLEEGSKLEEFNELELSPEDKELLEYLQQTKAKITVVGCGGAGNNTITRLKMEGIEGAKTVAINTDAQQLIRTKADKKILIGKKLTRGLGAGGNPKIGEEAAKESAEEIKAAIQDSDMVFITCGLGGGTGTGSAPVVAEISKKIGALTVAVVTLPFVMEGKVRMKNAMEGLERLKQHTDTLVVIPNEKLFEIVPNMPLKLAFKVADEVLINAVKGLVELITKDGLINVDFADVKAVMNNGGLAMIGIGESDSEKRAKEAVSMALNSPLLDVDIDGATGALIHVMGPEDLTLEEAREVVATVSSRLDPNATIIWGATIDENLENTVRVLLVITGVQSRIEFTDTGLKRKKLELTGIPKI

Row | Molecule | critical concentration for polymerization C (C-Pol) (= 1/Kp) [1] [µM] | critical concentration for polymerization C (C-Pol) (= 1/Kp) [2] [µM] | critical concentration for polymerization C (C-Pol) (= 1/Kp) [3] [µM] | critical concentration for polymerization C (C-Pol) (= 1/Kp) [4] [µM] | stoichiometry N [5] [subunits] | dH [6] [kJmol^−1] | critical concentration for polymerization C (C-Pol) (= 1/Kp) [7] [µM] | critical concentration for the GTPase activity C (C-GTPase) (malachite green phosphate release, 1 mM GTP), 40°C [8] [µM] | critical concentration for the GTPase activity C (C-GTPase) (malachite green phosphate release, 1 mM GTP), 45°C [8] [µM] | critical concentration for the GTPase activity C (C-GTPase) (malachite green phosphate release, 1 mM GTP), 50°C [8] [µM] | critical concentration for the GTPase activity C (C-GTPase) (malachite green phosphate release, 1 mM GTP), 55°C [8] [µM] | critical concentration for the GTPase activity C (C-GTPase) (malachite green phosphate release, 1 mM GTP), 65°C [8] [µM] | critical concentration for the GTPase activity C (C-GTPase) (malachite green phosphate release, 1 mM GTP), 70°C [8] [µM] | critical concentration for the GTPase activity C (C-GTPase) (malachite green phosphate release, 1 mM GTP), 80°C [8] [µM] | dH [9] [kJmol^−1] | stoichiometry N [10] [subunits]
1 | Methanocaldococcus jannaschii FtsZ-his6 fusion protein (from UniProt Q57816 1-364) (natural protein) | 1.1 | 1.6 | 3.9 | 1.8 | > 120 | 5.57 | 1.6 | 5.5 | 4.7 | 3.3 | 3.3 | 2.2 | 1 | 1.1 | – | –
2 | Wild type Escherichia coli FtsZ (natural protein, UniProt P0A9A6 1-383, looked up, Cell division protein FtsZ, Escherichia coli, wild type; assembly was started with 1 mM GTP; also called EcFtsZ; mesophilic EcFtsZ; source: E. coli BL21 (DE3), overexpressed, purified (polymerization-depolymerization cycles)) MFEPMELTNDAVIKVIGVGGGGGNAVEHMVRERIEGVEFFAVNTDAQALRKTAVGQTIQIGSGITKGLGAGANPEVGRNAADEDRDALRAALEGADMVFIAAGMGGGTGTGAAPVVAEVAKDLGILTVAVVTKPFNFEGKKRMAFAEQGITELSKHVDSLITIPNDKLLKVLGRGISLLDAFGAANDVLKGAVQGIAELITRPGLMNVDFADVRTVMSEMGYAMMGSGVASGEDRAEEAAEMAISSPLLEDIDLSGARGVLVNITAGFDLRLDEFETVGNTIRAFASDNATVVIGTSLDPDMNDELRVTVVATGIGMDKRPEITLVTNKQVQQPVMDRYQQHGMAPLTQEQKPVAKVVNDNAPQTAKEPDYLDIPAFLRKQAD | – | – | – | – | – | – | – | – | – | – | – | – | – | – | -18.4 | > 120

From publication PMC5628889, “Thermal adaptation of mesophilic and thermophilic FtsZ assembly by modulation of the critical concentration” (PLoS ONE, 2017)
